In patent WO2024034543A1:
Each block holds one molecule with its values, some of them ahead of it.

Legend:
[1] = molecular target: actin fused with ALFA tag, expressed in XTC cells; test: single-molecule time-lapse imaging on fixed XTC cells expressing ALFA tag-fused actin; reference NbALFA WT
[2] = molecular target: actin fused with FLAG tag, expressed in XTC cells; test: single-molecule time-lapse imaging on fixed XTC cells expressing tag-fused actin; reference 2H8 WT
[3] = molecular target: actin fused with S tag, expressed in XTC cells; test: single-molecule time-lapse imaging on fixed XTC cells expressing tag-fused actin; reference S66B WT
[4] = molecular target: actin fused with TARGET tag, expressed in XTC cells; test: single-molecule time-lapse imaging on fixed XTC cells expressing tag-fused actin; reference P20.1 WT
[5] = molecular target: mCherry-VGLUT1 overexpressed in CTC cells; test: single-molecule time-lapse imaging on fixed CTC cells overexpressing mCherry-VGLUT1; reference NV-Nb9 WT
[6] = molecular target: actin fused with HA tag, expressed in XTC cells; test: single-molecule time-lapse imaging on fixed XTC cells expressing tag-fused actin; reference 12CA5 WT
[7] = molecular target: mCherry-Hommer1 overexpressed in CTC cells; test: single-molecule time-lapse imaging on fixed CTC cells overexpressing mCherry-Hommer1; reference HS69 WT

fold rise of the dissociation constant against WT [1]: 1000 times
Molecule: anti-ALFA tag nanobody clone NbALFA, mutant code H2 (V27G, T28A, Y37A, E53A, R60A, V99A) (VHH)

fold rise of the dissociation constant against WT [2]: 50 times
Molecule: anti-FLAG antibody clone 2H8, mutant code H1L3 (HS28A, LY96A), Fv-EGFP (from UniProt P01631 1-113)

fold rise of the dissociation constant against WT [3]: 2 times
Molecule: anti-S tag antibody clone S66B, mutant code H1L0 (HS28A), Fv-EGFP (from UniProt P03976 1-113)

fold rise of the dissociation constant against WT [4]: 10 times
Molecule: anti-TARGET tag antibody clone P20.1, mutant code H1L0 (HY59G), Fv-EGFP (from UniProt P01724 22-129)

fold rise of the dissociation constant against WT [5]: 50 times
B1: anti-VGLUT nanobody clone NV-Nb9, mutant code H4 (R27G, T28A, Y32A, F37A, Y102A) (VHH)
VHH: QVQLQESGGGLVQAGDSLRLSCAASGGAWSIAGMGWARQAPGKEREFVAGITWRGGNTHYADFVKGRFTISRDNVKNTVYLQMNSLKPEDTAVYYCAANPNPSGSSVYRRNDAWGQGTQVTVSS

B2: anti-HA tag antibody clone 12CA5, mutant code H6L2 (HT28A, HY32A, LY49A), Fv-EGFP (protein)
heavy: EVKLVESGGDLVKPGGSLKLSCAASGFAFSSAGMSWVRQTPDKRLEWVATISRGGSYTYYPDSVKGRFTISRDNAKNTLYLQMSSLKSEDTAMYYCARRETYDEKGFAYWGQGTTVTVSS
light: DIELTQSPSSLTVTAGEKVTMSCKSSQSLLNSGNQKNYLTWYQQKPGQPPKLLIAWASTRESGVPDRFTGSGSGRDFTLTISSVQAEDLAVYYCQNDNSHPLTFGAGTKLELKA
fold rise of the dissociation constant against WT [6]: 100 times

fold rise of the dissociation constant against WT [7]: 100 times
B3: anti-Homer nanobody clone HS69, mutant code H3 (S27G, T28A, F37A, Y59A) (VHH)
VHH: QVKLQESGGRLVQAGGSLRLSCTASGGAFSNSAMGWARQAPGKQRELVASIANEGQFTNAAASVKGRFTISRDNTKNVLFLQMNSLKPEDTAVYYCKLYSGRIGSSDVWGQGTQVTVSS
